Measured values from PMC4158885 (The EMBO Journal, 2014).

Columns and labels:
[1] = molecular target: the molecule itself; assay: crystal structure; ctPan3 PKC bound to ctPan2 343–458, P21 symmetry, two copies of the complex in the asymmetric unit, molecular replacement
[2] = molecular target: T1, ctPan2 Δ343–375 (PID deletion in full-length ctPan2) (Chaetomium thermophilum, UniProt G0SAK8 1-1170, Δ343–375); assay: SEC; separately purified ctPan2 constructs and ctPan3 PKC dimer mixed 1:1 at 1 μM, 15 min at room temperature; Superdex 200 Increase 3.2/300 in 20 mM Tris pH 8.0, 500 mM NaCl, 2 mM TCEP; fractions on SDS–PAGE; details: both partners purified
T1 sequence (looked up): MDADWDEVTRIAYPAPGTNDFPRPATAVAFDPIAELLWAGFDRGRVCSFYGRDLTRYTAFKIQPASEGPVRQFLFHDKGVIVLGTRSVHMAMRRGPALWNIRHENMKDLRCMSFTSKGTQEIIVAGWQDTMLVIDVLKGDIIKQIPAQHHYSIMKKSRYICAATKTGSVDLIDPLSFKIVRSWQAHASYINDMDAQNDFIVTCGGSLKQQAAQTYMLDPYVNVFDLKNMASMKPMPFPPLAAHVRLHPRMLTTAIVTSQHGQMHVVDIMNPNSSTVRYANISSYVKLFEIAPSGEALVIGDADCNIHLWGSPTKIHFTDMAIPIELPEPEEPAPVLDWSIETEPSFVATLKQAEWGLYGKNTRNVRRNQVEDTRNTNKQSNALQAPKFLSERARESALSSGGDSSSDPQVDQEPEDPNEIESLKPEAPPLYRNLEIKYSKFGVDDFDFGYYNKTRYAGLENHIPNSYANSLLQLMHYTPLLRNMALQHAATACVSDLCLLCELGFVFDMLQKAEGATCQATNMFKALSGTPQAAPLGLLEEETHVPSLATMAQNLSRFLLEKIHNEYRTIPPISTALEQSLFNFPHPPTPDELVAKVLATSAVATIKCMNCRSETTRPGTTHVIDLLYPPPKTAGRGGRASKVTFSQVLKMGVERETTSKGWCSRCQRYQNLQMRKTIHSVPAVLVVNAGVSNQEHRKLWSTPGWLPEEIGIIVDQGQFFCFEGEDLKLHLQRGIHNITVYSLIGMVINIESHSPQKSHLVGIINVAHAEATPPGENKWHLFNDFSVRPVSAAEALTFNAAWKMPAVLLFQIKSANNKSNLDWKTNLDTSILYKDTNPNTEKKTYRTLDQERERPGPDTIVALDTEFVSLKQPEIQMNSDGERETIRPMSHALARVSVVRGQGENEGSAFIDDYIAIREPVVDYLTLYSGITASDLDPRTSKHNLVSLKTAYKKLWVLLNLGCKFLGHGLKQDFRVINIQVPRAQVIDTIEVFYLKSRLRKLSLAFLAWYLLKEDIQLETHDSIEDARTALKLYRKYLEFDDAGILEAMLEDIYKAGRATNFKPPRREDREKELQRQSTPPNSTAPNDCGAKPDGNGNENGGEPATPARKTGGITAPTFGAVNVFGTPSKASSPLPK

[3] = molecular target: T2, ctPan2 Δ353–375 (PID deletion in full-length ctPan2) (Chaetomium thermophilum, UniProt G0SAK8 1-1170, Δ353–375); assay: as above; details: both partners purified
T2 construct: Pan2, Chaetomium thermophilum, full-length context with an internal deletion of residues 353-375
T2 sequence (looked up): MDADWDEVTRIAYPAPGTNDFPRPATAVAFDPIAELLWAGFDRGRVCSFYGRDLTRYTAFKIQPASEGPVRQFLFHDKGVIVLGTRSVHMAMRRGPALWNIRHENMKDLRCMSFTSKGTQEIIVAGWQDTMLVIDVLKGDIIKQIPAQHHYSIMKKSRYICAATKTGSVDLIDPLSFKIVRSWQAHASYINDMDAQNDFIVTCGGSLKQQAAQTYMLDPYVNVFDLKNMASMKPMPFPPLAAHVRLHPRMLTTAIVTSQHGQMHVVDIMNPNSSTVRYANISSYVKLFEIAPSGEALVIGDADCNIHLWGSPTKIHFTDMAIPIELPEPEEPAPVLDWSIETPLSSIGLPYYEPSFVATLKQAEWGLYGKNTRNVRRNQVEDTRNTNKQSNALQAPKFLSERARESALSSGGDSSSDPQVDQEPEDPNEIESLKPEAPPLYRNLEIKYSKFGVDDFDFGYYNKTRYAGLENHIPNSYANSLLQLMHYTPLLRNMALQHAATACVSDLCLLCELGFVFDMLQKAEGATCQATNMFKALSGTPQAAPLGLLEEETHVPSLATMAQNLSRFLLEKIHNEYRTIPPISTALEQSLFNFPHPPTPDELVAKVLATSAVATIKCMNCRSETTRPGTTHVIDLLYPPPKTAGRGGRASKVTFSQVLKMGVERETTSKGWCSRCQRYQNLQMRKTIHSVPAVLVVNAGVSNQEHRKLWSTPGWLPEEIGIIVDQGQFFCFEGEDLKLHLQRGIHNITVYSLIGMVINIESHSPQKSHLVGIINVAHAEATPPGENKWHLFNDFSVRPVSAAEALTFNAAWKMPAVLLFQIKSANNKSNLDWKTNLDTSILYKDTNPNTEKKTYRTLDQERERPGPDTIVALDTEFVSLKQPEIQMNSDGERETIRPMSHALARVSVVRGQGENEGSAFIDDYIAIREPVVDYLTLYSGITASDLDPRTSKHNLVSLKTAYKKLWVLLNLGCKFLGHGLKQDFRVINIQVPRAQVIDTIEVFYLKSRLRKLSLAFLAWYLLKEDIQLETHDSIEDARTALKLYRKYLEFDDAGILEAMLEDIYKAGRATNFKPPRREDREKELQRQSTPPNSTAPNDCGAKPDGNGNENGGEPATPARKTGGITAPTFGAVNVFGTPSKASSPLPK

Measured: binding result

B1: ctPan3 pseudokinase/C-terminal domain (PKC, residues 205–640), purified from E. coli (domain or fragment, Chaetomium thermophilum, UniProt G0S0Y3 205-640, looked up)
chain: RQELQPWQRATYDFFMPQNLREDLQKKQFATLQVIPNSGLPQLEHWHSLVPLDTSNRKNTSCFGYPSWVYKAQNSRNGRHYALRRLEGYRLTNEKAILNVMKDWKKIKNASIVTIHEVFTTREFGDSSLIFAYDFHPLSKTLQEHHFQPIHGNRYRPPPAVPENTIWGYICQIANALKTIHSNRLAARCLEPSKIILTDINRIRLSACAILDVVQFGMNSRSVVELQQEDFVKFGKLILSLATGTLPAHLNNIPAALETLGNKYSANLKSAVNWLLDTSSGETKTIEHFMTGIASQMTTFFDLALQDNDEKLFHLAREVENGRIARSLMKLLTILERGDYDGVPSWSETGDRYQLKLFRDYVFHRVDADGKPNLSIGHMLTCMSKLEAGVDENILLTSRDNETVFVLSYRELRQMYDRAFNELVKASKTGAPGANT
notes: Pan3, Chaetomium thermophilum, pseudokinase (242-497), coiled coil (499-538) and C-terminal domain (555-640), construct residues 205-640; The crystals of ctPan3 PKC alone (PDB 4CYI) were of Se-Met-labelled protein; also called ctPan3 PKC; ctPan3 PKC dimer; source: E. coli, purified (glutathione Sepharose)
binds: all assays above
